Assay results from patent US20030235860A1, “Interactions between AR, ER, TR2, and TR4” (priority 1999, published 2003).

Key:
[1] = biological target: TR4-DR1 (Homo sapiens, UniProt P49116); conditions: increasing amounts of in vitro translated AR (1, 2, 4 μl)
Protocol: EMSA was performed as described previously. […] Briefly, the reaction was performed by incubating the 32P-end labeled DR1 probe with in vitro translated TR4 (1 ml) with or without an increasing amount of AR (1, 2, 4 ml). The EMSA incubation buffer is 10 mM HEPES, pH 7.9, 2% (v/v) glycerol, 100 mM KCl, 1 mM EDTA, 5 mM MgCl, and 1 mM DTT. For the antibody supershifted analysis, 1 ml of monoclonal anti-TR4 antibody (#15) was added to the reaction. […] The radioactive gel was analyzed by autoradiography.
One μl of in vitro translated TR4 protein was incubated with increasing amounts of in vitro translated AR (1 μl, 2 μl, and 4 μl) in EMSA reaction buffer (10 mM HEPES pH 7.9, 2% (v/v) glycerol, 100 mM KCl, 1 mM EDTA, 5 mM MgCl2, and 1 mM DTT) for 15 min. 32P-end labeled DR1 was added into the protein mixture and incubated for 15 min before loading. For the antibody supershift assay, 1 μl of monoclonal anti-TR4 antibody was added to the reaction and applied to a 5% native polyacrylamide gel. The radioactive gel was analyzed by autoradiography.

[2] = biological target: T1, PR (Homo sapiens, UniProt P06401); assay: PR-mediated transactivation (MMTV reporter); assay type: cell-based
T1 construct: expressed in transfected cells; host or cells: H1299 (pSG5-PR)
T1 sequence (P06401 1-933): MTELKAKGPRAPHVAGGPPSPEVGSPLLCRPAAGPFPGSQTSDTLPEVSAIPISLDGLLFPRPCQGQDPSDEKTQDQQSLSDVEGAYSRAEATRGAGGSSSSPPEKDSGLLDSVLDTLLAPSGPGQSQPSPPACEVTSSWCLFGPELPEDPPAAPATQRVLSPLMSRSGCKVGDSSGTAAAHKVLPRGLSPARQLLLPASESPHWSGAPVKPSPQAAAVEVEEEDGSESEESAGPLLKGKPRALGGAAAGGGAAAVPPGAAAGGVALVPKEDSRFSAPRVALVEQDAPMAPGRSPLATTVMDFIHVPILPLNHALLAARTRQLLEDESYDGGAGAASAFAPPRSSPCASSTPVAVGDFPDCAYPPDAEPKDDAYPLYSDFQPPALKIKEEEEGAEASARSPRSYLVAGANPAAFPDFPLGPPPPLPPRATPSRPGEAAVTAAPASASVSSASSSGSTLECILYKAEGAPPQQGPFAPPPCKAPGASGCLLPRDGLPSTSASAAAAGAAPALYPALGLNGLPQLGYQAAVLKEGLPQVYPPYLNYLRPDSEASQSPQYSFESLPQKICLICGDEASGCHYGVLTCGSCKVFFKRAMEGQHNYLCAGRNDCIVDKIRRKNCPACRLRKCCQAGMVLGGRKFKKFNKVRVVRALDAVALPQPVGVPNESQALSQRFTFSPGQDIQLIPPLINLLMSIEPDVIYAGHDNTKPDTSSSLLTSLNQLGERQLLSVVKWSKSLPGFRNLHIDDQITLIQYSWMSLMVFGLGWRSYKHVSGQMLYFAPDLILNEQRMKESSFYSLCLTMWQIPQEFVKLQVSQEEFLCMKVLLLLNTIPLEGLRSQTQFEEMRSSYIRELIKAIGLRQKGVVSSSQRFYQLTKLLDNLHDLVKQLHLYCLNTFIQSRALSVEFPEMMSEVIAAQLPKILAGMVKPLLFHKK

[3] = test system: PR; assay: Endogenous PR expression in T47D cells (Northern / Western); assay type: cell-based, human
Protocol: The method was used as previously described, Lee & Chang. (1996) J. Biol. Chem. 271. 10405-10412, with some modifications. Briefly. 5 μg of pCMV-TR2 was transiently transfected into T47D cells and lysed in RIPA buffer (10 mM sodium phosphate, pH 7.0. 150 mM NaCL, 2 mM EDT A. 1% (w/v) Nonidet P-40, 0.1% (w/v) SDS. 1% (w/v) sodium deoxycholate) with freshly adding proteinase inhibitors. The soluble protein was quantified using the Bio-Rad Protein Assay reagent (Bio-Rad Laboratories) and 50 μg soluble proteins were loaded onto SDS/10% PAGE and then transferred to Immobion-P transfer membrane (Millipore). After the blocking reaction overnight, the membrane was incubated with […] anti-PR polyclonal antibody (H-190. Santa Cruz) in PBS(−) containing 0.1% Skim milk for 2 h at room temperature. The membrane was washed and then incubated in 15 μCi 125I] of protein-A (DuPont NEN)/30 ml of PBS(−) containing 0.1% Skim milk for 1 h at room temperature. The western blots were autoradiographed and quantitated by using Phosphorlmager.
RNA isolation and Northern blot analysis were performed as previously described. Young, et al., J. Biol. Chem. 273,20877-20885 (1998).
Next it was determined if TR2 could repress the ER endogenous target gene expression. PR was chosen because it is well studied as an E2-ER target gene in T47D cells. Misrahi et al., Biochem. Biophys. Res. Commun. 143, 740-748 (1987). […] Cells were then used for RNA isolation (Northern blot analysis) and lysate protein extraction (Western blot analysis). For RNA analysis, total RNAs were isolated, and Northern blots were performed using [32P] labeled PR cDNA probes. The membrane was autoradiographed. For Protein Western blot analysis, cells lysates were prepared and PR proteins were visualized by radioimmunoblot. The membrane was autoradiographed to Phosphorimager and was quantitated by ImageQuant software.

[4] = test system: PSA; assay: Northern blot of endogenous PSA in LNCaP cells; assay type: cell-based, human
Protocol: Total RNA from the DHT-treated transfected LNCaP cells was prepared by the ultracentrifugation method as described. Lee, et al., J: Biol. Chem. 273, 13437-13443 (1998). The probe was obtained from exon 3 of PSA gene and labeled with a-32p dCTP.
To rule out the potential artificial effects linked to transfected reporter assays, the expression of endogenous prostate specific antigen (PSA, an androgen target that is widely used as a marker for prostate cancer progression) in LNCaP cells was measured by Northern blot analysis. Total RNA (25 μg) from LNCaP cells, which were transfected with either pCMX-TR4 or pCMX vector using SuperFect (Qiagen), was applied into a formamide RNA gel, then transferred onto a Nylon membrane, and then hybridized with a 32P-PSA gene fragment from the exon 3. P-actin was used as an internal control. […] The level of secreted PSA protein in the medium measured by ELISA, also confirmed this conclusion. This in vivo TR4-mediated suppressive effect strongly supports the above reporter assays.
Total RNA from transfected LNCaP cells was prepared using TRIZOL reagents (Life Technology) as instructed by manufacturer. The probe was obtained from the PSA gene by PCR and labeled with 32P dCTP. Northern hybridization was performed as described previously [Mu X. M. et al. (2002) J Biol Chem 275:23877-23883].

AR: androgen receptor, SEQ ID NO:31
Specific TR4-DR1 band [1]: decreased

B1: TR2: human testicular orphan nuclear receptor 2, 603 amino acids (protein, UniProt P13056 1-603, looked up)
chain: MATIEEIAHQIIEQQMGEIVTEQQTGQKIQIVTALDHNTQGKQFILTNHDGSTPSKVILARQDSTPGKVFLTTPDAAGVNQLFFTTPDLSAQHLQLLTDNSPDQGPNKVFDLCVVCGDKASGRHYGAVTCEGCKGFFKRSIRKNLVYSCRGSKDCIINKHHRNRCQYCRLQRCIAFGMKQDSVQCERKPIEVSREKSSNCAASTEKIYIRKDLRSPLTATPTFVTDSESTRSTGLLDSGMFMNIHPSGVKTESAVLMTSDKAESCQGDLSTLANVVTSLANLGKTKDLSQNSNEMSMIESLSNDDTSLCEFQEMQTNGDVSRAFDTLAKALNPGESTACQSSVAGMEGSVHLITGDSSINYTEKEGPLLSDSHVAFRLTMPSPMPEYLNVHYIGESASRLLFLSMHWALSIPSFQALGQENSISLVKAYWNELFTLGLAQCWQVMNVATILATFVNCLHNSLQQDKMSTERRKLLMEHIFKLQEFCNSMVKLCIDGYEYAYLKAIVLFSPDHPSLENMEQIEKFQEKAYVEFQDYITKTYPDDTYRLSRLLLRLPALRLMNATITEELFFKGLIGNIRIDSVIPHILKMEPADYNSQIIGHSI
modifications: full-length
notes: human testicular orphan nuclear receptor 2, 603 amino acids
PR-mediated transactivation (MMTV-CAT) ([2]; H1299 cells, 10^−8 M progesterone, increasing TR2): little effect | PR-mediated transcription (MMTV-CAT) ([2]; T47D cells, Example 2): marginal effect | E2-induced PR expression at mRNA and protein levels ([3]; T47D cells and MCF7 cells, Example 2): repress | Expression of endogenous PR mRNA ([3]; T47D cells transfected with pCMV-TR2, 10 nM E2): clearly repressed | Endogenous PR expression (Western blot) ([3]; T47D cells, similar in MCF7): repress | PSA mRNA expression ([4]; LNCaP cells, 10 nM DHT, pCMV-TR2, Example 4): suppresses

B2: TR4: human testicular orphan nuclear receptor 4, SEQ ID NO:16; expressed from plasmid or in vitro translated (protein)
chain: MTSPSPRIQIISTDSAVASPQRIQGSEPASGPLSVFTSLNKEKIVTDQQTGQKIQIVTAVDASGSPKQQFILTSPDGAGTGKVILASPETSSAKQLIFTTSDNLVPGRIQIVTDSASVERLLGKTDVQRPQVVEYCVVCGDKASGRHYGAVSCEGCKGFFKRSVRKNLTYSCRSSQDCIINKHHRNRCQFCRLKKCLEMGMKMESVQSERKPFDVQREKPSNCAASTEKIYIRKDLRSPLIATPTFVADKDGARQTGLLDPGMLVNIQQPLIREDGTVLLATDSKAETSQGALGTLANVVTSLANLSESLNNGDTSEIQPEDQSASEITRAFDTLAKALNTTDSSSSPSLADGIDTSGGGSIHVISRDQSTPIIEVEGPLLSDTHVTFKLTMPSPMPEYLNVHYICESASRLLFLSMHRARSIPAFQGLGQDCNTSLVRACWNELFTLGLAQCAQVMSLSTILAAIVNHLQNSIQEDKLSGDRIKQVMEHIWKLQEFCNSMANWDIDGYEYAYLKAIVLFSPDHPGLTSTSQIEKFQEKAQMELQDYVQKTYSEDTYRLARILVRLPALRLMSSNITEELFFTGLIGNVSIDSIIPYILKMETAEYNGQITGVSL
PR-mediated MMTV-LUC reporter activity ([2]; H1299 cells, 10 nM progesterone, increasing TR4): failed to suppress | Expression of endogenous PSA transcript ([4]; LNCaP cells transfected with pCMX-TR4, absence or presence of 10 nM DHT): clearly repress
